Results on four molecules are retold here after PMC11270187 (2024).

Assay [1] has as its target T1, HLA-DR on BJAB cells (human (endogenous in BJAB), UniProt P01903 26-254; P01911 30-266). The assay can be described thus: FACS.
Assay [2] addresses T2, recombinant HLA-DR (uncleaved) (human, UniProt P01903 28-206; P01911 30-219). The assay can be described thus: BLI; apparent. On the technique in general: In BLI a coated tip is dipped into the sample, and binding shifts an interference pattern.
Assay [3] addresses T1, HLA-DR on BJAB cells. The assay can be described thus: FACS. The source holds these as a separate data set. For orientation: A flow cytometer gives signals particle by particle.
Assay [4] deals with T2, recombinant HLA-DR (uncleaved). The assay can be described thus: BLI; apparent. The source holds these as a separate data set.
Assay [5] addresses T1, HLA-DR on BJAB cells. The assay can be described thus: FACS. The source holds these as a separate data set.
The target in assay [6] is T2, recombinant HLA-DR (uncleaved). The assay can be described thus: BLI; apparent. This is another data set of the same source.

Positions count from the first letter of the chain named. Names may count otherwise. Like-named read-outs stand apart in the source and are kept apart here.

B1: humanized 44H10 version 17 IgG (antibody, V domains shown)
VH: QVTLKESGPVLVKPTETLTLTCTVSGFSLTSYGVHWIRQPPGKALEWLAVIWAGGSISYSTSLMSRLTISKDTSKSQVVLTMTNMDPVDTATYYCARAYGDYVHYAMDYWGQGTLVTVSS
VL: DIQMTQSPSSLSASVGDRVTITCRASQEISGYLTWLQQKPGKAPKLLIYAASTLDSGVPSRFSGSGSGTDFTLTISSLQPEDFATYYCLQYTNYPLTFGQGTKLEIK
What is called EC50 is the midpoint of the concentration-response curve. Low readings indicate an effect from little substance, high ones a need for much substance. With B1, the EC50 in assay [1] came out at 43 nM.

B2: humanized 44H10 version 21 IgG (V17 with light chain S60K and G66R back-mutations) (antibody, V domains shown)
VH: B1 VH
VL: B1 VL with S60K, G66R
For B2, the Kd in assay [2] worked out at 95 nM. Also, in assay [3], the half-maximal effective concentration (EC50) came to 14 nM.

B3: humanized 44H10 version 22 IgG (antibody, V domains shown)
VH: QVQLQESGPGLVKPSETLSLTCTVSGFSLTSYGVHWIRQPPGKGLEWIGVIWAGGSINYNSALMSRVTISKDTSKNQVSLKLSSVTAADTAVYYCARAYGDYVHYAMDYWGQGTLVTVSS
VL: B1 VL with S60K, G66R
As to B3, the Kd in assay [4] was found to be 29 nM. Also, in assay [5], a half-maximal effect (EC50) was put at 1.7 nM.

B4: parental 44H10 IgG (antibody, V domains shown)
VH: QVQLKESGPGLVAPSQSLSITCTVSGFSLTSYGVHWVRQPPGKGLEWLGVIWAGGSINYNSALMSRLSISKDNFKSQVFLKMSSLQTDDTAMYYCARAYGDYVHYAMDYWGQGTSVTASS
VL: DIQMTQSPSSLSASLGQRVSLTCRASQEISGYLTWLQQKPDGTIKRLVYAASTLDSGVPKRFSGSRSGSDYSLTISSLESEDFADYYCLQYTNYPLTFGAGTKLELK
On to B4, for which the results for the EC50 in assay [5] and in assay [1] were 1 nM and 0.8 nM, respectively. The Kd in assay [6] was 2.2 nM.
